Measurements: publication PMC6317593, “Determining the amphipol distribution within membrane-protein fibre samples using small-angle neutron scattering” (Acta Crystallographica. Section D, Structural Biology, 2018)

Target: the molecule itself
Assay: SEC; Superose 12 column, 20 mM sodium phosphate pH 7.9, 100 mM NaCl, 0.5 ml/min; OmpF in amphipol A8-35 at 1:10 (w:w), detergent-free buffer; oligomer: trimer

B1: Outer membrane protein F (OmpF) (natural protein, E. coli, UniProt P02931 23-362, looked up)
chain: AEIYNKDGNKVDLYGKAVGLHYFSKGNGENSYGGNGDMTYARLGFKGETQINSDLTGYGQWEYNFQGNNSEGADAQTGNKTRLAFAGLKYADVGSFDYGRNYGVVYDALGYTDMLPEFGGDTAYSDDFFVGRVGGVATYRNSNFFGLVDGLNFAVQYLGKNERDTARRSNGDGVGGSISYEYEGFGIVGAYGAADRTNLQEAQPLGNGKKAEQWATGLKYDANNIYLAANYGETRNATPITNKFTNTSGFANKTQDVLLVAQYQFDFGLRPSIAYTKSKAKDVEGIGDVDLVNYFEVGATYYFNKNMSTYVDYIINQIDSDNKLGVGSDDTVAVGIVYQF
modifications: deuterated (cells grown in 85% D2O minimal medium)
notes: Outer membrane protein F (OmpF), the major porin of the E. coli outer membrane, produced from E. coli BE3000 cells; trimeric, each monomer a 16-stranded beta-barrel; Native protein purified from the outer membrane of strain BE3000; Held in amphipol A8-35 (not a protein) in all experiments; also called dOmpF; deuterated OmpF; source: E. coli BE3000 cells grown in 85% D2O minimal medium, purified …
- stoichiometry N: 3
